Reference: the nanobody polyreactivity screen of Harvey et al. (2022)

Assay: yeast display, Sf9 membrane polyspecificity reagent, FACS + sequencing; frameworks hold sequencing errors
Summary of the method: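 Galactose-induced (36–48 hours) yeast carrying a synthetic nanobody display library were exposed to 10% biotinylated, detergent-solubilized Sf9 membrane reagent at 4 °C for 1 hour. FACS followed streptavidin microbead enrichment, using low and high (top ~1%) gates for expression (anti-HA) and reagent binding (streptavidin). Colony PCR, MiSeq 2 × 250 sequencing and CDR-length filtering followed. Labels for polyreactivity reflect the gate of origin.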

Sequence	polyreactivity (PSR sort gate)
QVQLVETGGGLVQAGGSLRLSCAASGIIFSRYAMGWYRQAPGIERELVASITGRVGSTYYADSVKGRFTISRDNAKNTVYLQMNRLKPEDTAVYYCAADYGYKFDYWGQGTQVTVSA	low polyreactivity
QVQLVETGGGLVQAGGSLRLSCAASGITFFGYDIGWYRQAPGKERELVAAINSRGGNTYYADSVKGRFTISRDNAKYTVYLQMNSLKPEDTAVYYCAARRYYNRAYGYWGQGTQVTVSS	high polyreactivity
QVQLVETGGGLVQAGGSLRLSCAASGITFVYYAMGWYRQAPGKERELVPSISSADNTNYADSVKGRFTISRDNAKNTVYLQMNSLKPEDTAVYYCAADFCWHLRHDSTGGYWGQGTQVTVSS	low polyreactivity
QVQLVETGGGLVQAGGSLRLSCAASGITSRPYVMGWYRQAPGKERELVAAISLTGGRTYYADSVKGRFTISRDNAKNTVYLQMNSPKPEDTAVYYCAAARSPYKYSYWGQGTQVTVSS	high polyreactivity
QVQLVETGGGLVQAGGSLRLSCAASGLIFVSNAMGWYIQAPGKVRELVAAISKSVGRTYYADSVKGRFTISRDNEKNTVYLQMNSLQPEDTAVYYCAARSRVSPRYDYWGQGTQVTVSS	high polyreactivity
QVQLVETGGGLVQAGGSLRLSCAASGLIFYRYAMGWYRQAPGKERELVAVITRSGGNTNYADSVKGRFTISRDNAKNTVYLQMNSLKPEDTAVYYCATRGIWKKVPYYYWGQGTQVTVSS	high polyreactivity
QVQLVETGGGLVQAGGSLRLSCAASGLTFKYYTKGWYRQAPGKERELVASISWSGGSTYYADSVKGRFTISRDNAKNTVYLQMNSLKPEDTAVYYCARRGYWGPGALGGGGYYWGQGTQVTVSS	high polyreactivity
QVQLVETGGGLVQAGGSLRLSCAASGRIFGPYAMGWYRQAPGKERELVAAITWSGVSTYYADSVKGRFTISRDNAKNSVYLQMNSLKQEDTAVYYCAVDPRGHEGVRYNYWGQGTKVTVSS	low polyreactivity
QVQLVETGGGLVQAGGSLRLSCAASGRIFYLYAMGWYRQAPGKEWELVAAISSSGGSTYYADSVKGRFTISRDNAKTTVYLQMNSLKPEDTAVYYCNARRRTVPYRYDYWGQGTQVTVSS	high polyreactivity
QVQLVETGGGLVQAGGSLRLSCAASGRIFYYYAMGWYRQAPGKERELVAGIDSGDSTNYADSVKGRFTISRDNAKNTVYLQMNSLKPEDTAVYYCAALHYGVYFSYYPYYYWGQGTQVTVSS	low polyreactivity
QVQLVETGGGLVQAGGSLRLSCAASGRTFGHNDMGWSRQAPGKERELVATISSDGSTNYADSVKGRFTISRDNAKNTVYLQMNSLKPEDTAVYYCAKVYQYVEYDYWGQGTQVTVSS	low polyreactivity
QVQLVETGGGLVQAGGSLRLSCAASGRTFKGYAMGWYRQSPGKERELVAGISRGAGRTYYADSVKGRFTISRDNAKNTVYLQMNSLKPEDTEVYYCAAVPSYHSTSPFYYWGQGTQVTVSS	high polyreactivity
QVQLVETGGGLVQAGGSLRLSCAASGRTFLDYTMGWYRQAPGKERELVAAIRTSAGSTYYADSVKGRFTISRDNAKNTVYLQMNSLKPEDTAVYYCAKRQRGYFYEYYLYYSWGQGTQVTVSS	low polyreactivity
QVQLVETGGGLVQAGGSLRLSCAASGRTFYQYAMGWYRQAPGKERELVAGITFRGGSTNYADSVKGRFTISRDNAKNTVYLQMNSLKPEDTAVYYCAATVYGTVYKGRSQYEYGYWGQGTQVTVSS	high polyreactivity
QVQLVETGGGLVQAGGSLRLSCAASGSIFHPYGIGSYRQGPGKERELVAAITSSGGDTYYADSVKGRFTISRDNSKNTVYLQINSLKPEDTAVYYCAATGLPGYYAYDYWGQGTQVTVSS	low polyreactivity
QVQLVETGGGLVQAGGSLRLSCAASGSIFRYNAKGWYRQAPGKEREFVAAITRSGGSTYADSVKGRFTISRDNAKNTVSLQLNSLKPEDTAVYYCAATRLSRYEYWGQGTQVTVSS	low polyreactivity

Sequence	polyreactivity (PSR sort gate)
QVQLVETGGGLVQAGGSLRLSCAASGSIFTNYVMGWYRQAPGKERELVAAINWSGGSTYYADSVKGRFTISRDNAKNTVYLQMNSLKQEDTAVYFCASESFSDGSPYNYWGQGPQVTVSS	low polyreactivity
QVQLVETGGGLVQAGGSLRLSCAASGSIFVYNAMGWYRQAPGKERELVAGITFIGGSTYYADSVKGRFTISRDNAKNTVFLQMNSLKPEDTAVYYCNADVAPGIFYGYDSWGQGTQVTVSS	low polyreactivity
QVQLVETGGGLVQAGGSLRLSCAASGSTFESNAMGWYRQAPGKERELVAAISRGGNTYYADSEKGRFTISRDNAKNTVYLQMNSLKPEDTAVYYCNVDRGNPVPPSEYWGQGTQVTVSS	low polyreactivity
QVQLVETGGGLVQAGGSLRLSCAASGSTFPAYTMGWYRQAPGKERELVAAITTGGRTYYADSVKGRFTISRDNAKNTVYLQMNSLKPEDTAVYYCAAKRYCYRSLPYYGIHGWGQGTQVTVSS	high polyreactivity
QVQLVETGGGLVQAGGSLRLSCAASGSTFSDYVMGWYRQAPGKERELVAAITWSGGSTYYADSVKGRFTISRDNAKNTVYLQMNSLKPEDTAVYYCAADPTASGHFLGQVDYWGQGTQVTVSS	high polyreactivity
QVQLVETGGGLVQAGGSLRLSCAASGSTFWYYGMGWYRQAPGKERELVAAISRRGGSTYYADSVKGRFTFSRDNAKNTVYLQMNSLKPEDTAVYYCAADRLIGDGENYYWGQGTQVTVSS	high polyreactivity
QVQLVETGGGLVQAGGSLRLSCAASRSIFARNAMGWYRQAPGKERELVAAISWSGGRTYYADSVKGRFPISRVNAKNTVYLQMNSLKPEDTAVYYCATYTWWGQGTQVTVSS	high polyreactivity
QVQLVETGGGLVQAGGSLRLSCADYGYILWNAMGWYRQAPGTEMELVPAIRFRGGSTSYADSVKGRFTISRDNAQNTVYLQMKSLKPVYTAVYYCNARWWVIRPYERHDYWGQGTQVTVTS	low polyreactivity
QVQLVETGGGLVQAGGSLRLSCAPSGRTFGPYAMGWYRQAPGKERELVAAIRVRGASTYYADSVKVRFTISRDNEKNTVYLQMNSLKPEDTEVYYCAATLSYYVGVRYDYWGQGTQVTVSS	high polyreactivity
QVQLVETGGGLVQAGGSLRLSCAPSGRTLSYYAMGWYIQAPGKERELVAAIRHSAGSTYYADSVKVRFTISRDNAKNTVYLQMISLKPEDTAVYYCAKKYYGHRYPSIYDYWGQGTQVTVSS	high polyreactivity
QVQLVETGGGLVQAGGSLRLSSGASGFIFVRNAMGWYRQAPGKEREFVAAINSSGGRTYYADSVKGRFTISRDNANNTVNLQMNSLKPEDTAVYYCAARPQPKKFYYWGQGTQETVSS	high polyreactivity
QVQLVETGGGLVQAGGSLSLSCAASGRTSKINAMGWYRQAPGKERELVASISRTGGTTYYADSVKGRFTISRDNAKNTVYLQMNSVKPEDTAVYYCAVSDFGLRDSLTIYDEYDYWGQGTQVTVSS	high polyreactivity
QVQLVETGGGLVQAGGSLSLSCAASGSILDLNAMGWYRQAPGKERELVAAISSGGGTYYADSVKGRFTISRDNAKNTVYLQMNSLKPEDTAVYYCNRVTRWTYNYWGQGTQVTVSS	high polyreactivity
QVQLVETGGGLVQAGGSLSLSCAGSGHTFTNNAMGWYRQAPGKERELVAAITFSGGRTYYADSVKGRFTISRDNAKNTVYLQKNSLKPEDTAVYYCDAVNPGGSIYDYWGQGTQVTVSS	low polyreactivity
QVQLVETGGRLVQAGGSLRLSSAASGSIFYPYAMGWYRQAPGKEREWVATITISGGRTYYADSVKGRFTISRDNAKNTVYLQMNSLKPEDTAFYYCATEYAYGAFLYDYWGQGTQVTVSW	low polyreactivity
QVQLVETGGVLDQAGGSLRLSCAASGRIFWANAMGWYRQAPGKERELVAAISYSGVSTYYADSVKGRFTSSRDNAKNTVYLQMNSLKPEDTAVYYCAADRYRKYYYWGQGTQVTVSS	high polyreactivity
